Data on 1 protein can be found in patent US20020111476A1 (published 2002).

The data set concerns the molecule itself. In words: preliminary analysis of molecular form; method not detailed.

B1: Mouse cysteine rich soluble protein 2 (C2) (ligand)
chain: DETIEIIVENKVKELLANPANYPSTVTKTLSCTSVKTMNRWASCPAGMTATGCACGFACGSWEIQSGDTCNCLCLLVDWTTARCCQLS
notes: the copy number is not fixed; also called mC2; mouse C2
On to B1, for which the binding result is on record as “binds”.
